Here are results for 3 molecules from US20170081412A1 (MITSUBISHI TANABE PHARMA, published 2017).

Test [1] addresses T1, recombinant human IL-6R (human, UniProt P08887 20-365).
T1 construct: The sandwich ELISA used a His-tagged form; also called soluble IL-6R; His-tagged human IL-6R
T1 sequence: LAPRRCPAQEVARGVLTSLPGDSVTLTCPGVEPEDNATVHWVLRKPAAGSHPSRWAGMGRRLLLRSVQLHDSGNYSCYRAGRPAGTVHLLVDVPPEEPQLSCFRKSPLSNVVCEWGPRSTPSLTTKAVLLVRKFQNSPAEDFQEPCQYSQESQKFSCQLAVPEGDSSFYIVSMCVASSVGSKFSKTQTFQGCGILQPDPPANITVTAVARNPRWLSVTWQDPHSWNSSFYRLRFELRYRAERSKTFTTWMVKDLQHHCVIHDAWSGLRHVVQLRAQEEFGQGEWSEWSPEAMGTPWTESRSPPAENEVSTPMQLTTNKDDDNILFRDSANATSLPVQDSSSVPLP
Nature of the test: SPR: antibody captured on an amine-coupled anti-human antibody (GLM chip), recombinant human IL-6R flowed as analyte. The source says:
(§1) To determine the affinity and kinetic parameters of FynomAb binding to human IL-17A and human IL-6R, an anti-human antibody was amine coupled to a GLM chip.
On the technique in general: In SPR one partner is held on a chip, and binding of the other changes the refractive index at the surface.

The target of test [2] is T1, recombinant human IL-6R. Nature of the test: SPR (representative sensorgram with fit): antibody captured on an amine-coupled anti-human antibody (GLM chip), recombinant human IL-6R flowed as analyte.
Description: as §1

The target of test [3] is T2, human IL-6R on the surface of HEK Blue IL-6 cells (human, UniProt P08887 20-468).
T2 construct: HEK Blue IL-6 cells (Invivogen); also called cell surface IL-6R; HEK-Blue-IL6 cells (IL6R+)
T2 sequence: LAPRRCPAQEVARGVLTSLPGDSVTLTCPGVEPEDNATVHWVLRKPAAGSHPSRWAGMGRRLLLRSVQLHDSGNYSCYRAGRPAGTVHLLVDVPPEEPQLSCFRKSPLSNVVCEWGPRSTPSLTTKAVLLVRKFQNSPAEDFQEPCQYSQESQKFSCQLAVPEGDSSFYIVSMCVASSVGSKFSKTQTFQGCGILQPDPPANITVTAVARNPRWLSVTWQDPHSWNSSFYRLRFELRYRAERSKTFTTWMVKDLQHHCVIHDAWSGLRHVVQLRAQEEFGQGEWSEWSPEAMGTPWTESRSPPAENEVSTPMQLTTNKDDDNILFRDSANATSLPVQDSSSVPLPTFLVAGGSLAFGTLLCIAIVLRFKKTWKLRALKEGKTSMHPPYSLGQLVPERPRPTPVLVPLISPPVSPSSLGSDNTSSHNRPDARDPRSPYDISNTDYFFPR
Nature of the test: flow cytometry: HEK-Blue IL-6 cells (IL-6R+), drug titrated about 0.005-300 nM, detected with anti-human IgG-Alexa488. (In general: Flow cytometry measures light scatter and fluorescence of single cells or particles in a stream.)

The target in the next test is T3, recombinant human IL-17A (human, UniProt Q16552 24-155, limits assumed).
T3 construct: In the flow cytometry assay it was biotinylated; also called soluble IL-17A
Description: SPR: antibody captured on an amine-coupled anti-human antibody (GLM chip), recombinant human IL-17A flowed as analyte.
Description: as §1

Test [4] has as its target T1, recombinant human IL-6R. Nature of the test: SPR (representative sensorgram with fit): antibody captured on an amine-coupled anti-human antibody (GLM chip), recombinant human IL-6R flowed as analyte.
Description: as §1
The source holds these as a separate data set.

For test [5], the target named is T1, recombinant human IL-6R. Description: SPR, binder captured by anti-human antibody on GLM chip, IL-6R as analyte; average of 4 experiments; column head prints nM, value taken as M.
Description: as §1

Test [6] deals with T1, recombinant human IL-6R. Description: SPR, binder captured by anti-human antibody on GLM chip, IL-6R as analyte; average of 4 experiments.
Description: as §1

Test [7] deals with T1, recombinant human IL-6R. Nature of the test: SPR, binder captured by anti-human antibody on GLM chip, IL-6R as analyte; average of 6 experiments.
Description: as §1

Test [8] has as its target T1, recombinant human IL-6R. Description: SPR, binder captured by anti-human antibody on GLM chip, IL-6R as analyte; average of 6 experiments; column head prints nM, value taken as M.
Description: as §1

T3 sequence (Q16552 24-155 limits assumed): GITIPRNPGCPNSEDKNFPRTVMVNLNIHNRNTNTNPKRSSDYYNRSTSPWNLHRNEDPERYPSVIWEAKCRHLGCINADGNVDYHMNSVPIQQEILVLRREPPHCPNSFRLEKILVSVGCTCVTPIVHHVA

B1: secukinumab (antibody, human IgG1, kappa, V domains shown)
VH: EVQLVESGGGLVQPGGSLRLSCAASGFTFSNYWMNWVRQAPGKGLEWVAAINQDGSEKYYVGSVKGRFTISRDNAKNSLYLQMNSLRVEDTAVYYCVRDYYDILTDYYIHYWYFDLWGRGTLVTVSS
VL: not shown
For B1, the binding result in the test with recombinant human IL-6R [1] was “no binding”.

B2: tocilizumab (produced in house in CHO cells) (antibody, human IgG1, kappa)
heavy: not shown
light: not shown
notes: also called parental antibody
Take B2: the Kd in the test with recombinant human IL-6R [2] is 467 pM; in the test with recombinant human IL-6R [4], 410 pM; with recombinant human IL-6R [5], 417 pM. Also, the off-rate (koff) in the test with recombinant human IL-6R [2] was 0.000199 s⁻¹; with recombinant human IL-6R [4], 0.000189 s⁻¹; with recombinant human IL-6R [6] it was 0.000186 s⁻¹. The kon in the test with recombinant human IL-6R [2] was determined as 427000 M⁻¹ s⁻¹; in the test with recombinant human IL-6R [4], 461000 M⁻¹ s⁻¹; with recombinant human IL-6R [6], 473000 M⁻¹ s⁻¹. In addition, the “EC50 (read off the curve)” value in [3] was roughly 1000 pM. Also, the binding result in the test with recombinant human IL-17A is “no binding”.

B3: Actemra (commercial tocilizumab) (antibody, human IgG1, kappa)
heavy: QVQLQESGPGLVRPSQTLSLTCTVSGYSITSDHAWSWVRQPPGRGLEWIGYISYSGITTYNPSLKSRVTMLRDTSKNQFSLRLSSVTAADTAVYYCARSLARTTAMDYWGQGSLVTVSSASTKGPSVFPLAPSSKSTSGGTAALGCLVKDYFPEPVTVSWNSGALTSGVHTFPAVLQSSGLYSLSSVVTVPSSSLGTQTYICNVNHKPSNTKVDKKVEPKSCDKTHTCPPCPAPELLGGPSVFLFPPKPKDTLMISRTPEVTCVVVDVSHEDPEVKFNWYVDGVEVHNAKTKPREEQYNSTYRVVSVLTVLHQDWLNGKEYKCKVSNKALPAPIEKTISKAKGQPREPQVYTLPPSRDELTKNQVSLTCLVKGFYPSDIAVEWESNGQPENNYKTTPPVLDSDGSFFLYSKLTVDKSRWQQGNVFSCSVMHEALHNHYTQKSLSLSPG
light: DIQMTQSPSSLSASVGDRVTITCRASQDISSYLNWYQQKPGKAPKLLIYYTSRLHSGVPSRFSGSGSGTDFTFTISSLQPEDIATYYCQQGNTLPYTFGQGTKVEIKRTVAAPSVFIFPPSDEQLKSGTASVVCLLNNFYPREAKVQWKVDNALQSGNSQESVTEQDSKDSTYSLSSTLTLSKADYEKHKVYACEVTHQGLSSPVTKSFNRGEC
notes: also called commercial Actemra; commercial grade Actemra
In the case of B3, in the test with recombinant human IL-6R [2], the Kd is 467 pM, the off-rate (koff) was 0.000195 s⁻¹ and the on-rate constant (kon) amounted to 417000 M⁻¹ s⁻¹. Besides, in the test with recombinant human IL-6R [7], the off-rate (koff) is 0.000191 s⁻¹ and the on-rate constant (kon) amounted to 413000 M⁻¹ s⁻¹. For the same molecule, in the test with recombinant human IL-6R [8], the Kd stood at 499 pM. The binding result in the test with recombinant human IL-17A is “no binding”.

One may read the Kd as the concentration at which binding is half-saturated. By koff is commonly meant a measure of how fast the partners let go of each other. One may read the kon as a measure of how fast the partners come together. What is called EC50 (read off the curve) is the concentration giving half of the maximal effect.
